Measurements from doi:10.1101/2025.05.07.652675.
Where “and” joins values, the source holds several entries; their conditions need not be identical. Equal entries are not always repeated.

Target: ZapC^F30D and ZapC^K94D
Experiment: BLI

FtsZ (wild type, untagged), sequence (P0A9A6 whole entry): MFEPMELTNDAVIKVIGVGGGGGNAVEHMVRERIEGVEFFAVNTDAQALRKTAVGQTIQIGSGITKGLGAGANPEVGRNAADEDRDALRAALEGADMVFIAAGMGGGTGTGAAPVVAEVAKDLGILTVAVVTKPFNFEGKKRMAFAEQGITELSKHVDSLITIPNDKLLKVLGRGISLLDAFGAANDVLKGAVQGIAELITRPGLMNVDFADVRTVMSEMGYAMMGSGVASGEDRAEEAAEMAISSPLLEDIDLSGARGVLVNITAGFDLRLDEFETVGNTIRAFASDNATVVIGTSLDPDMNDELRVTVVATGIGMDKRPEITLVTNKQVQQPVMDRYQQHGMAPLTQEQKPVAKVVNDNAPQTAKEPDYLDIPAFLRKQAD

- binding affinity relative to wild-type ZapC (times lower): 5 times and 7 times
Substance: FtsZ (wild type, untagged) (from UniProt P0A9A6 1-383) (natural protein)
